Common to all, as to assay type: biochemical
In data set [1] the test system is O=C(c1ccc(Cl)cc1)c1ccccn1. Put plainly: Kinetic analysis of alcohol dehydrogenase mutant (CPMK reduction, NADPH absorption at 340 nm). To be noted: substrate CPMK, pH 7.0, 30° C. On the procedure:
Adopting a total reaction system of 200 μL, including: 1.0 mM NADPH, 1.0 mM substrate CPMK and sodium phosphate buffer (PBS, 100 mM, pH 7.0), fully and evenly mixing, maintaining at 30° C. for 2 min, adding an appropriate amount of enzyme solution, and detecting the change in light absorption at 340 nm.
The enzyme activity was calculated by the following formula: Enzyme activity (U)=EW×V×10^3/(6220×I);
in the formula, EW is the change in absorbance at 340 nm in 1 min; V is the volume of a reaction solution in mL; 6220 is the molar extinction coefficient of NADPH in L/mol·cm); and 1 is the optical path distance in cm. One activity unit (U) corresponds to the amount of enzyme required to catalyze the oxidation of 1 μmol NADPH per minute under the above conditions.
A column used for purification was a nickel affinity column HisTrap FF crude, and purification was achieved through affinity chromatography using a histidine tag on recombinant protein. The nickel column was equilibrated with a solution A first, a crude enzyme solution was loaded, a penetrating peak was further eluted off using the solution A, and after equilibrium, a solution B (20 mM sodium phosphate, 500 mM NaCl, and 1000 mM imidazole, pH 7.4) was used for gradient elution to elute off the recombinant protein bound to the nickel column, so as to obtain the recombinant alcohol dehydrogenase mutant. The purified protein was subjected to activity measurement (CPMK as substrate, and NADPH as coenzyme) and SDS-PAGE analysis. […] The purified alcohol dehydrogenase protein was then replaced into a Tris-HCl (100 mM, pH 7.0) buffer using a Hi Trap Desalting column (GE Healthcare).
The activity of KpADH at different substrate concentrations and coenzyme concentrations was determined, and a double reciprocal curve was made based on the reciprocal of activity and substrate concentration to calculate kinetic parameters.
Two mutants of S237A and S237C valuable for modification of asymmetric synthesis R- and S- are obtained by random mutation screening, and the two sites are used as templates for random mutation. […] It can be known by combining the data in Tables 2 and 3 that the 214 site of alcohol dehydrogenase is a site that is important for determining selectivity improvement and inversion.

Data set [2] is described as follows: Substrate specificity, specific activity. In short, it runs like this:
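Alcohol dehydrogenase mutants were assayed with 1.0 mM NADPH and 1.0 mM ketone substrate (CPMK or other prochiral carbonyls) in 100 mM sodium phosphate, pH 7.0, at 30° C. NADPH oxidation was followed at 340 nm; one U oxidizes 1 μmol NADPH per min (ε 6220).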

A short description of data set [3]: Stereoselectivity on different substrates. To be noted: configuration in brackets. The procedure, abridged:
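Alcohol dehydrogenase mutants reduced prochiral ketones, including CPMK, aryl pyridyl and diaryl ketones, acetophenones and keto esters. Reactions were extracted into ethyl acetate and redissolved in ethanol. Conversion and ee were determined by chiral liquid and gas chromatography, with ee calculated from (S)- and (R)-CPMA molar concentrations.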

The nature of data set [4]: Stereoselectivity on different substrates. The following applies: configuration in brackets. The procedure, abridged:
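Reaction mixture extracted with ethyl acetate, dried organic phase redissolved in ethanol, then analysed by chiral liquid chromatography and gas chromatography. Values are transformation rate and ee, with ee from LC molar concentrations of (S)- and (R)-CPMA. Substrates were prochiral ketones reduced by alcohol dehydrogenase mutants.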
The source holds these as a separate data set.

Data set [5] in a line: Stereoselectivity (ee) of CPMK reduction, chiral liquid chromatography. The following applies: product configuration in brackets. In short, it runs like this:
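ee is calculated from the (S)-CPMA and (R)-CPMA molar concentrations measured by chiral liquid chromatography; conversion also by GC. Samples are ethyl acetate extracts of the reaction, dried and redissolved in ethanol.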

Data set [6] is described as follows: Asymmetric reduction in 20 mL biocatalytic system, conversion.
Data set [7] can be described thus: Kinetic analysis of alcohol dehydrogenase and mutants (NADPH oxidation, 340 nm, double reciprocal curve). The following applies: substrate CPMK. In short, it runs like this: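 His-tagged recombinant KpADH (wild type or mutant) purified by nickel affinity, desalted into Tris-HCl pH 7.0. Activity measured at 30° C in 100 mM sodium phosphate pH 7.0 with 1.0 mM NADPH and 1.0 mM CPMK by 340 nm NADPH absorbance decrease; kinetic parameters from double reciprocal plots over varied substrate and coenzyme concentrations.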

For the molecule “alcohol dehydrogenase KpADH (SEQ ID No. 2) mutant H249Y/S237C (Vanderwaltozyma polyspora DSM 70294; H249Y/S237C)”, in data set [1] (other: H249Y/S237C), the Michaelis constant (Km) (commonly the substrate concentration at which the rate is half of its maximum) was 980 ± 20 µM; the Vmax (usually the top rate of the reaction or transport when substrate is in excess) turned out to be 16.5 µM/min/mg; the turnover number (kcat) (as a rule, the maximal rate divided by the concentration of active sites) was found to be 11 ± 0.83 s⁻¹; the kcat/Km (in general, the second-order rate constant that governs catalysis at low substrate concentration) worked out at 11200 ± 980 M⁻¹ s⁻¹.

In the case of “alcohol dehydrogenase KpADH (SEQ ID No. 2) mutant S237A (Vanderwaltozyma polyspora DSM 70294; S237A)”, in data set [1] (other: S237A), the Michaelis-Menten constant (Km) came out at 580 ± 30 µM, the Vmax was determined as 36.5 µM/min/mg, the turnover number (kcat) is 24.4 ± 1.26 s⁻¹ and the kcat/Km came to 42000 ± 2360 M⁻¹ s⁻¹.

“alcohol dehydrogenase KpADH (SEQ ID No. 2) mutant L60F/S237C (Vanderwaltozyma polyspora DSM 70294; L60F/S237C)”: in data set [1] (other: L60F/S237C), the Km worked out at 1120 ± 20 µM, the Vmax was 12.6 µM/min/mg, the kcat turned out to be 8.4 ± 0.23 s⁻¹ and the kcat/Km amounted to 7500 ± 690 M⁻¹ s⁻¹.

For “alcohol dehydrogenase KpADH (SEQ ID No. 2) mutant A269C/S237C (Vanderwaltozyma polyspora DSM 70294; A269C/S237C)”, in data set [1] (other: A269C/S237C), the Michaelis constant (Km) is 1560 ± 20 µM, the Vmax was 22.6 µM/min/mg, the kcat was found to be 15.4 ± 0.86 s⁻¹ and the kcat/Km came to 9900 ± 360 M⁻¹ s⁻¹.

B1: E214Y/S237A: tyrosine for glutamate at position 214 and alanine for serine at position 237 of SEQ ID No. 2 (protein)
chain: MSVLISGASGYIAKHIVRVLLEQNYKVIGTVRSQDKADKLLKQYNNPNLSYEIVPEIANLDAFDDIFKKHGKEIKYVIHAASPVNFGAKDLEKDLVIPAINGTKNMFEAIKKYAPDTVERVVMTASYASIMTPHRQNDPTLTLDEETWNPVTEENAYENVFTAYCASKTFAEKEAWKFVKENSDAVKFKLTTIHPSFVFGPQNFDEDVTKKLNYTCEIINGLLHAPFDTKVEKTHFAQFIDVRDVAKTHVLGFQKDELINQRLLLCNGAFSQQDIVNVFNEDFPELKGQFPPEDKDTDLNKGVTGCKIDNEKTKKLLAFEFTPFHKTIHDTVYQILHKEGRV
modifications: Protein translated from synthetic DNA
Regarding B1, the specific activity amounted to 0.26 U/mg in data set [2] (substrate [drawing 1]); 0.25 U/mg in data set [2] (substrate [drawing 2]); 2.25 U/mg in data set [2] (substrate [drawing 3]); 4.06 U/mg in data set [2] (substrate [drawing 4]); 14.48 U/mg in data set [2] (substrate [drawing 5]); 25.70 U/mg in data set [2] (substrate [drawing 6], 4-chlorophenacyl chloride). The specific activity in data set [2] (substrate [drawing 7]) is 22.02 U/mg; in data set [2] (substrate [drawing 8]), 22.61 U/mg; in data set [2] (substrate [drawing 9], ethyl 4-chloro-3-oxobutanoate), 7.74 U/mg. Further, the “Stereoselectivity (ee)” value in data set [3] (substrate [drawing 10], acetophenone) was 32.1 (R); in data set [3] (substrate [drawing 11], 4-chloroacetophenone) it was 97.9 (R); in data set [3] (substrate [drawing 12], 4-chlorobenzoyl chloride), 61.6 (R); in data set [3] (substrate [drawing 16], (4-bromophenyl)-(phenyl)-methanone), 98.5 (S); in data set [3] (substrate [drawing 17], p-nitrobenzophenone), 99.2 (S); in data set [4] (substrate [drawing 13]), 18.2 (R). The “Stereoselectivity (ee)” value is 99.1 (R) in data set [4] (substrate [drawing 14], likely CPMK (values partly match Table 4)); 89.3 (S) in data set [4] (substrate [drawing 15]); 79.3 (S) in data set [4] (substrate [drawing 18]). Further, the e.e. in data set [5] is listed as 99.1 (R). For the same molecule, the Conversion rate in data set [6] (4-nitroacetophenone 10 mM, 1 h) came to 32%; in data set [6] (4-nitroacetophenone 10 mM, 2 h), 48%; in data set [6] (4-nitroacetophenone 10 mM, 3 h), 60%; in data set [6] (4-nitroacetophenone 10 mM, 4 h), 85%; in data set [6] (4-nitroacetophenone 10 mM, 6 h), 95%; in data set [6] (4-nitroacetophenone 10 mM, 8 h), 99.8%. Further, the Conversion rate in data set [6] (4-nitroacetophenone 10 mM, 12 h) is more than 99.9%; in data set [6] (4-nitroacetophenone 10 mM, 24 h), more than 99.9%; in data set [6] (4-nitroacetophenone 20 mM, 1 h), 22%; in data set [6] (4-nitroacetophenone 20 mM, 2 h) it was 35.5%; in data set [6] (4-nitroacetophenone 20 mM, 3 h) it was 55.8%; in data set [6] (4-nitroacetophenone 20 mM, 4 h) it was 69.5%. Moreover, the Conversion rate in data set [6] (4-nitroacetophenone 20 mM, 6 h) is given as 90.4%; in data set [6] (4-nitroacetophenone 20 mM, 8 h) it was 95.6%; in data set [6] (4-nitroacetophenone 20 mM, 12 h), 99.2%; in data set [6] (4-nitroacetophenone 20 mM, 24 h), 99.5%; in data set [6] (4-nitroacetophenone 50 mM, 1 h), 10.5%; in data set [6] (4-nitroacetophenone 50 mM, 2 h), 22.5%. The Conversion rate in data set [6] (4-nitroacetophenone 50 mM, 3 h) is given as 35.9%; in data set [6] (4-nitroacetophenone 50 mM, 4 h) it was 49.5%; in data set [6] (4-nitroacetophenone 50 mM, 6 h), 60.9%; in data set [6] (4-nitroacetophenone 50 mM, 8 h), 82.6%; in data set [6] (4-nitroacetophenone 50 mM, 12 h), 85.5%; in data set [6] (4-nitroacetophenone 50 mM, 24 h), 86.5%. For the same molecule, the Conversion rate in data set [6] (CPMK 100 mM, 1 h) is 66%; in data set [6] (CPMK 100 mM, 2 h), 80%; in data set [6] (CPMK 100 mM, 3 h) it was 89.5%; in data set [6] (CPMK 100 mM, 4 h), 94%; in data set [6] (CPMK 100 mM, 6 h) it was 96.6%; in data set [6] (CPMK 100 mM, 8 h), 99.5%. Moreover, the Conversion rate in data set [6] (CPMK 100 mM, 12 h) is given as more than 99.9%; in data set [6] (CPMK 100 mM, 24 h), more than 99.9%; in data set [6] (CPMK 200 mM, 1 h) it was 45.5%; in data set [6] (CPMK 200 mM, 2 h), 65.5%; in data set [6] (CPMK 200 mM, 3 h), 75.9%; in data set [6] (CPMK 200 mM, 4 h) it was 88.8%. The Conversion rate in data set [6] (CPMK 200 mM, 6 h) was 95.6%; in data set [6] (CPMK 200 mM, 8 h) it was 99.1%; in data set [6] (CPMK 200 mM, 12 h), 99.7%; in data set [6] (CPMK 200 mM, 24 h), more than 99.9%; in data set [6] (CPMK 500 mM, 1 h) it was 25.5%; in data set [6] (CPMK 500 mM, 2 h), 33.5%. For the same molecule, the Conversion rate in data set [6] (CPMK 500 mM, 3 h) came to 45.8%; in data set [6] (CPMK 500 mM, 4 h) it was 59.9%; in data set [6] (CPMK 500 mM, 6 h), 77.9%; in data set [6] (CPMK 500 mM, 8 h), 90.2%; in data set [6] (CPMK 500 mM, 12 h), 95.7%; in data set [6] (CPMK 500 mM, 24 h), 99.5%. Also, in data set [6] (20 mL biocatalytic system, 30° C., pH 7.5), the “ee in asymmetric synthesis of (R)-CPMA” value is listed as 99.1%. The “substrate concentration that could be afforded” value in data set [6] (p-nitrobenzophenone) is on record as 20 mM. In data set [7], this molecule returned a Kcat of 15.80 ± 0.25 s⁻¹. The Km in data set [7] was 620 ± 20 µM. The Vmax in data set [7] was 23.70 ± 0.37 µM/min/mg.
